We go through one molecule from patent publication US20210238265A1 (Biogen, published 2021).

The test concerns the target T1, His-tagged Tau domain IV (AA 355-441 of hTau40) (human, UniProt O02828 317-403 (Capra hircus entry)).
T1 construct: Expressed in E. coli BL21 (DE3) and purified on Ni-NTA; not shown: N-terminal 6xHis tag from pRSET-A vector
Kind of test: Western blot of His-tagged tau domains and hTau40. How it is done: DNA fragments, synthesized using GeneArt® (Invitrogen), which encode each Tau domain with 6×His tagged at the N-terminus were cloned into the pRSET-A expression vector (Invitrogen), were transfected into E. coli BL21 (DE3) (New England Biolabs). The expressions of the His-tagged Tau domains were induced by 0.5 mM IPTG for six hours before bacteria were lysed with lysozyme with sonication. The lysate was boiled for five minutes before being further purified with Ni-NTA Superflow Columns (Qiagen). The eluted His-tagged Tau domains were coated on ELISA plates or loaded on polyacrylamide gel for Western Blot. These sequentially overlapping tau domain polypeptides cover the full length of hTau40 (FIG. 13A).
A general note: A western blot detects proteins with antibodies after separation by electrophoresis.

T1 sequence (O02828 317-403): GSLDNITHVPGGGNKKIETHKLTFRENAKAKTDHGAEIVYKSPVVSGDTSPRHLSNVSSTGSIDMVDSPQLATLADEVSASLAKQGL

B1: Recombinant human antibody NI-105.4A3 (antibody, V domains shown)
VH: QVQLVESGGGAVQPGGSLRLSCAASGFTFSDYAMHWVRQAPGKGLQWVAVISYEGTYKYYADSVKGRFTISRDNSKNTLNLQMSSLRVEDTAVYFCVKARAFASGQRSTSTVPDYWGQGTLVTVSS
VL: SYELTQPPSVSVSPGQTARITCSGDALPKKYAYWYQQKSGQAPVLVIYEDNKRPSGIPERFSGSSSGTVATLTISGAQVDDEADYYCYSTDISGDLRVFGGGTKLTVL
As to B1, the binding result was “no binding”.
